This experiment deals with WT FUS::EGFP (FUS tagged with a C-terminal GFP tag) (UniProt P35637). Briefly: single-molecule photobleaching step counting.

“WT FUS::EGFP (FUS tagged with a C-terminal GFP tag) (from UniProt P35637 1-526)” registered a fraction of dimers (two-step photobleaching) of 30%.

The values are drawn from publication PMC6943187.
